# Experiment: soluble on expression in E. coli; label from the status in PepcDB or PDB records
row,Sequence,soluble on expression in E. coli
1,MAHHHHHHMLMHSSTLGSVTYTGMKRRSNAASFSTYLRYSSKVVAPIVRSSPRANMGFKRFAASIAPSDLPAPSTTCISSMKRMMGVGLSRTSFKTLFRRSSNSPRYFAPAIRAPRSREKMREEERVSGTSPRTICCAMPSTMDVLPTPGSPIKTGLFFVRRDRTRMVRNTSSARPISGSSLPSSACRHMSIAYLDNAS,not soluble
2,MSLNGATQGLLGWSSRGEIAAEIADAKQSQSVYVDKIANSSLAEIQADPTLMQFALSGGAAAFKVNCIQCHGSGAEGGQGYPNLNDDDWMWGGSVDDIYTTVKHGIRFADDADTRASEMPAFGDILKSDEIRAVAAYVVSLTGTPSNPALVEPGKQLFADNCASCHGEDAKGNREFGAPNLADAIWLKAHGEEGIVAQIRSPKHGVMPAWGERLGDTTVKQLAIFVHSLGGGEGHHHHHH,not soluble
3,MKMNNTKEYSIRTPSLGNLPPGTTGTCCPPPLVFPLLPLSPPPSPPPSPSSPPRLPPPFPALFPPEPPLPPRFELPPPLFPPPPLPRLPPPLLPPPEEPPREPPPPPPPPEEPPPPASCLRTKSPENGIVSTVK,not soluble
4,MSLKEIGPNSLLLEDSHSLSQLLKKNYRWYSPIFSPRNVPRFADVSSITESPETLKAIRDFLVERYRTMSPAPTHILGFDARGFLFGPMIAVELGIPFVLMRKADKNAGLLIRSEPYEKEYKEAAPEVMTIRHGSIGKNSRVVLIDDVLATGGTALSGLQLVEASGAEVVEMVSILTIPFLKAAERIHSTAGGRYKNVRFIGLLSEDVLTEANCGDLNDYTGPRVLSCSDLLVNQ,soluble
5,MSGRGKVKSEPMKVVFINTQYVETDARSFKTVVQELTGKNAIVAAGPFDSPSAFDGRCYDGGSKIGEDTRQLHGGGGGGGRMGTTTEFDRLFKEMPHMEELYKLWSEY,soluble
6,MAHHHHHHMAATNSPTEEEVVMRYQQLRQECLAMDSRISELENELHEHQLVADTLKPLNGDRRCHRLVGGALIERTVADILPELVENIKGIEEALAQLNKMLTEKQAAMDEYARKHGVTVAQRQGQTPAGGGGANNDEGEKKPMGADSRGVLV,soluble
7,MRVDIWSDVVCPFCYIGKKRLEHVAAEAGIELDVHWHSFELDPDAPTSHDTSNTERLAKKYGRTFEEMQEMQQNIASMAAQEGIDFQWQKANSGNSFNAHRIIHLAQSKGLGNEAEEAFFHAYMTEGLAIGEREVVEEIASRIGLDHAEVEFVLDSNELSDFVRHDEKIAHEQLNISGVPFFVFDQKLALSGAQPKEVFLQVLQKALTQRENDAVAEASSDAVCSDDSCDIPQKS,not soluble
8,MKLLHAIQTHAETYPQTDAFRSQGQSLTYQELWEQSDRAAAAIQKRISGEKKSPILVYGHMEPHMIVSFLGSVKAGHPYIPVDLSIPSERIAKIIESSGAELLIHAAGLSIDAVGQQIQTVSAEELLENEGGSVSQDQWVKEHETFYIIYTSGSTGNPKGVQISAANLQSFTDWICADFPVSGGKIFLNQAPFSFDLSVMDLYPCLQSGGTLHCVTKDAVNKPKVLFEELKKSGLNVWTSTPSFVQMCLMDPGFSQDLLPHADTFMFCGEVLPVSVAKALLERFPKAKIFNTYGPTEATVAVTSVEITNDVISRSESLPVGFAKPDMNIFIMDEEGQPLPEGEKGEIVIAGPSVSRGYLGEPELTEKAFFSHEGQWAYRTGDAGFIQDGQIFCQGRLDFQIKLHGYRMELEEIEFHVRQSQYVRSAVVIPYQPNGTVEYLIAAIVPEEHEFEKEFQLTSAIKKELAASLPAYMIPRKFIYQDHIQMTANGKIDRKRIGEEVLVRSHHHHHH,soluble
9,MCGQKFELKIDNVRFVGHPTLLQHALGQISKTDPSPKREAPTMILFNVVFALRANADPSVINCLHNLSRRIATVLQHEERRCQYLTREAKLILALQDEVSAMADGNEGPQSPFHHILPKCKLARDLKEAYDR,not soluble
10,MRLDVEQTSKLDRVRADYNVHYWSQGFYGIDDQGEMYVSPRSDNAHQIQLSKIVKQLEERQLNVPVLVRFPQILHQRVHSICDAFNQAIEEYQYPNKYLLVYPIKVNQQREVVDEILASQAQLETKQLGLEAGSKPELLAVLAMAQHASSVIVCNGYKDREYIRLALIGEKLGHKVFIVLEKMSELDLVLREAKSLGVTPRLGIRIRLASQGAGKWQASGGEKSKFGLSASQVLNVISRLKKENQLDTLQLVHFHLGSQMANIRDVRNGVNESARFYCELRTLGANITYFDVGGGLAIDYDGTRSQSSNSMNYGLVEYARNIVNTVGDVCKDYKQPMPVIISESGRSLTAHHAVLISNVIGTETYKPETVTEPEEDFPLLLNNMWRSWLNLHNGTDARALIEIYNDTQSDLAEVHSQFATGVLTLEHRAWAEQTSLRIYYELNRLMSTKNRFHRPILDELSERLADKFFVNFSLFQSLPDSWGIDQVFPVLPLSGLQNAADRRAVMLDITCDSDGAIDAYVDGQGIESTLPVPAWNEDEPYLMGFFLVGAYQEILGDMHNLFGDTHSVVVNVGDQGEINIDFINEGDTVEDMMRYVHIDVDQIRKNYHSLVSQRVDQEEQQQILAELEQGLSGYTYLEDFLEHHHHHH,soluble
11,MKDSALTLKRVRIGKFSESMVEERPTLNLFEKVEFNPVPTALVDQLPTEPLVEATLLEKEAITFVDTYATSEAHDQIATFVLEQSMETEVVEKEAIETAIVAPAPDLVEEKAVLVEEVLVEPTATEAVTTEENQVSTTSVTKIKTKRSNTKKVTSETLVASKSVKTKKLITPNRVSSGNVNITLWQVDKKSTNLTKTKTDLFGKKHQFKGPQLISYKK,soluble
12,MLSSSGHAIRRGITTSAALSNKHAFIVGAARTPIGSFRSSLSSVTAPELASVAIKAALERGAVKPSSIQEVFLGQVCQANAGQAPARQAALGAGLDLSVAVTTVNKVCSSGLKAIILAAQQIQTGHQDFAIGGGMESMSQVPFYVQRGEIPYGGFQVIDGIVKDGLTDAYDKVHMGNCGEKTSKEMGITRKDQDEYAINSYKKSAKAWENGNIGPEVVPVNVKSKKGVTIVDKDEEFTKVNFDKFTSLRTVFQKDGTITAANASTLNDGAAAVIVASQEAVSEQSLKPLARILAYGDAATHPLDFAVAPTLMFPKILERAGVKQSDVAQWEVNEAFSCVPLAFIKKLGVDPSLVNPHGGAVSIGHPIGMSGARLITHLVHTLKSGQIGVAAICNGGGGSSGMVIQKL,not soluble
13,QECTKFKVSSCRECIESGPGCTWCQKLNFTGPGDPDSIRCDTRPQLLMRGCAADDIMDPTSLAETQEDHNGGQKQLSPQKVTLYLRPGQAAAFNVTFRRAKGY,soluble
14,MGSDKIHHHHHHMADTAPQLKRKREQEAEEAETPSTEEKEAGVGNGTSAPVRLPFSGFRVQKVLRESARDKIIFLHGKVNEDSGDTHGEDAVVILEKTPFQVEHVAQLLTGSPELKLQFSNDIYSTYNLFPPRHLSDIKTTVVYPATEKHLQKYMRQDLRLIRETGDDYRTITLPYLESQSLSIQWVYNILDKKAEADRIVFENPDPSDGFVLIPDLKWNQQQLDDLYLIAICHRRGIRSLRDLTPEHLPLLRNILREGQEAILKRYQVTGDRLRVYLHYLPSYYHLHVHFTALGFEAPGSGVERAHLLAQVIENLECDPKHYQQRTLTFALRTDDPLLQLLQKAQQERN,soluble
15,NIQYEERVSVQADLGSQTLHVRGLIDSGNQLYDPLTKTPVMIIYIDKLEPIFGTAETMIIRNTDPLEAIEQLDDSFRFLDKMRLIPYRGVGQQNQFLLCVKPDHVTIMTKEEMISADKCLIGISTTKLSADGEFDAIIHPKMLSGKAVKH,not soluble
16,KHGPLHPIPNRPVLTRARASLPLVLYIDRFLGGVFSKRRIPKRTQFGPVEGPLVRGSELKDCYIHLKVSLDKGDRKERDLHEDLWFELSDETLCNWMMFVRPAQNHLEQNLVAYQYGHHVYYTTIKNVEPKQELKVWYAASYAEFVNQKIHD,soluble
17,EMVLLPAPQIPLIMKIMKNHTPTWLPGVPTLYEKIVAEATAKGVEIKGIRNSFSGASTLPVRTVEDWENLTGGLLVEGYGLTETSPVLCGNPMNGNRRPGYIGVPFPDTEIRIANPDNLDETMPDGEAGEVLARGPQIFQGYLNKPEATAATFHGDWFRTGDMGVMEEDGFIRLVSRIKEIIITGGFNVYPAEVEEALIAHPDVDDAAVVGRPRKDGSEDVVACIVLKDGAALDPEGLKTHCRKLLTRYKVPRTFYHFEALNKDQLGKVRRREVQQTLLERLGEK,not soluble
